The source of these data is the RNAGym collection of RNA variant scans (doi:10.1093/molbev/msab373).

B1: Azoarcus group I ribozyme (parent)
chain: GUGCCUUGCGCCGGGAAACCACGCAAGGGAUGGUGUCAAAUUCGGCGAAACCUAAGCGCCCGCCCGGGCGUAUGGCAACGCCGAGCCAAGCUUCGGCGCCUGCGCCGAUGAAGGUGUAGAGACUAGACGGCACCCACCUAAGGCAAACGCUAUGGUGAAGGCAUAGUCCAGGGAGUGGCGAAAGUCACACAAACCGG

Variants of B1 are the subject of this series. In words: reverse-splicing fitness (ratio to wild type); higher = more active; in vitro selection; Mg2+ level not given. In outline: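 An in vitro group I ribozyme library with randomized positions was T7-transcribed and gel-purified. In triplicate, 10 pmol RNA in EPPS pH 7.5 was reacted with 50 pmoles of a 30-nt RNA substrate for 1 h at 37 °C across several added MgCl2 levels (1–48 mM), then stopped with EDTA. Products were reverse transcribed from a substrate-complementary primer, PCR-amplified and sequenced (HiSeq 4000). Fitness is a variant's read proportion after selection over that before, normalised to wild type.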
Regarding C82U A111G A120U A145C C150G C169A U176C, the reverse-splicing fitness was 0.00258.
Then C82A A120U C150A C169A, with 0.0042; and C82G A111U A120U A145G U176A, with 0.0121.
The figure for C82A A111C A120C A145G C150U C169G is 0.00829.
For the variant C82G A111C A120G A145U C150A C169U U176A, the reverse-splicing fitness came to 0.0169.
Then A120U C150G C169U, with 0.0339; and A111G C150A C169U U176C, with 0.0264; and A111C A120U C150U, with 0.416.
The figure for C82A A120U C169A U176A is 0.00254.
The figure for C82A A120C A145U U176C is 0.0639; for C82A A111C A120C A145U C150U U176G it is 0.00695; for C82A A120G A145C C150U C169U U176A it is 0.0197.
C82U A111G A120U C150G C169G U176A: the reverse-splicing fitness amounted to 0.00513.
Turning to C82G A111U A145C C150U C169U, the reverse-splicing fitness came to 0.0104.
Then A111U A120U A145U C169U U176A, with 0.0087; and C82A A111G A120G A145G C150A C169A U176G, with 0.00687; and C82A C150A C169G U176C, with 0.0241.
For A111G A145G C150G C169U U176A, the reverse-splicing fitness amounted to 0.011.
With C82U A111U A120G C150A C169A U176G, the reverse-splicing fitness was 0.00561.
Then C82U A145U C150U C169U, with 0.0118; and C82G A120U A145C C169U U176C, with 0.00223; and C82U A111U C150U C169G U176A, with 0.013.
In the case of A111G A145G C150G U176G, the reverse-splicing fitness is 0.0237.
Consider C82U A111C A145C C150G C169U U176C, for which the reverse-splicing fitness turned out to be 0.0106.
Then C82G A111G A120G C150G C169G U176A, with 0.00837.
Then C82U A111U A145G C150A C169U, with 0.0105; and A120G A145C C150U C169G U176C, with 0.107.
Regarding C82U A111U A120C A145U C169U U176A, the reverse-splicing fitness came to 0.0155.
In the case of C82G A145C C150A C169A U176A, the reverse-splicing fitness amounted to 0.0106.
The figure for C82A A111C A120C A145C C150G C169U U176C is 0.0112.
Then C82G A111G C150G, with 0.0256.
With A111C A120C A145U C169G U176G, the reverse-splicing fitness was 0.00445.
Regarding C82A A111C A120G A145G C150A U176G, the reverse-splicing fitness amounted to 0.00772.
Then C82U C169A, with 0.00905.
In the case of A111C A120C A145C C150G U176A, the reverse-splicing fitness was 0.0198.
The figure for C82A A111G A120G C150A U176G is 0.00961; for C82A A120U A145G C150A C169U U176G it is 0.003.
Then C82U A120U A145G C150U C169U, with 0.00625.
Then C82G A111U A145U C169A U176A, with 0.0121; and C82G A111C A120G A145C C150G C169G U176C, with 0.00726.
With C82U A111C A145G U176A, the reverse-splicing fitness worked out at 0.0861.
Then C82U A111U A120C A145C C169A U176C, with 0.00567; and C82A A120G A145U C150U, with 0.0167; and A120C A145G C150A C169G, with 0.0107.
Then C82G A111G C150G C169A U176C, with 0.0166.
The figure for C82G A111U A145C C150G C169U is 0.00915; for C82G A111C A120G A145C C150A U176G it is 0.00463; for A111C A120G A145G C150U C169G it is 0.167.
As to A120G A145G C150G C169G U176G, the reverse-splicing fitness came out at 0.00607.
Then C82G A111G A120C A145C C150U, with 0.0209.
Consider C82U A111G A120C A145G C150U C169U U176G, for which the reverse-splicing fitness was 0.00448.
The figure for C82U A111U A120G A145C C150A C169U U176A is 0.0189; for C82G A111C A120G A145G C169G U176G it is 0.00514; for C82G A111G U176C it is 0.279.
Then C82U A120G A145G C150G U176G, with 0.00539; and C82G A145G C150U C169U U176C, with 0.015.
The figure for C82A A120G A145U C150U C169A U176C is 0.0113.
Regarding C82A A120U A145G C150U U176C, the reverse-splicing fitness stood at 0.0478.
The figure for C82A A120C C150G C169G U176A is 0.00779.
Then C82U A120U A145G C150G C169G U176A, with 0.00758.
Then C82A A120G A145G C150G C169U U176G, with 0.00741.
Consider A111G A120U C150U C169A U176G, for which the reverse-splicing fitness came to 0.00227.
The figure for A120U A145C C150U C169G U176C is 0.0135; for C82A A145U C150A C169A U176C it is 0.0105; for C82A A111U A145U C150A C169U U176A it is 0.0147.
The figure for C82A A120U A145C C150U U176A is 0.00945; for C82G A111C A120C C150U C169G U176G it is 0.0066; for C82U A111G A120U A145G C150A C169G it is 0.00549.
Then C82A A111C A120C A145G C169A U176C, with 0.0288; and A120G A145U C169G, with 0.618; and C82G A111G A145G C150A U176G, with 0.0208.
As to A120G A145C C169G U176C, the reverse-splicing fitness was 0.235.
C82U A111C A120G A145U C150G C169G U176A: the reverse-splicing fitness was 0.0063.
For A111G A120G A145G C169A U176G, the reverse-splicing fitness is 0.00474.
Then C82A A111U A145C C150U U176A, with 0.0254.
As to C82U A111G A145C C150G C169A U176C, the reverse-splicing fitness was determined as 0.00614.
Consider C82U A120G A145C C150U C169U U176C, for which the reverse-splicing fitness amounted to 0.00975.
The figure for C82A A111G A145U C169A U176A is 0.0131; for C82A A120U A145U C150A C169A U176C it is 0.00188; for C82U A111C A145C C150A C169A U176G it is 0.00794.
Then C82G A111U A120U A145U C150A C169U U176G, with 0.00195.
Then A111U A120U C150G U176G, with 0.00286; and C82U A111C A120C A145U C150A C169U U176G, with 0.00706.
Regarding C82A A120C A145U C169U U176A, the reverse-splicing fitness was determined as 0.0169.
